Data: paper PMC9429925

What was measured:
[1] = biological target: FixJ (Rhizobium meliloti) (UniProt P10958); details: cited from earlier work
DcuR = DcuR (UniProt P0AD01); test: size exclusion chromatography with SDS-PAGE of fractions; details: reference: PASC-Kin without ATP, mixed with DcuR; sites H349
OmpR (Escherichia coli) = OmpR (Escherichia coli) (UniProt P0AA16); details: cited from earlier work
Chain of OmpR (Escherichia coli) (P0AA16 whole entry): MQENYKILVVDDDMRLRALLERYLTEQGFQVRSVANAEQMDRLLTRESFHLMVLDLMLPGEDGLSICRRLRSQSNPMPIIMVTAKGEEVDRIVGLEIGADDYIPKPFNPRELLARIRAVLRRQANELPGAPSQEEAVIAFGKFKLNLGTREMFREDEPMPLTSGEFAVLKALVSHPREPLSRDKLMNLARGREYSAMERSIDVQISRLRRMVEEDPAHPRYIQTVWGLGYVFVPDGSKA

Chain of FixL heme-binding and kinase domains (P10955 127-505): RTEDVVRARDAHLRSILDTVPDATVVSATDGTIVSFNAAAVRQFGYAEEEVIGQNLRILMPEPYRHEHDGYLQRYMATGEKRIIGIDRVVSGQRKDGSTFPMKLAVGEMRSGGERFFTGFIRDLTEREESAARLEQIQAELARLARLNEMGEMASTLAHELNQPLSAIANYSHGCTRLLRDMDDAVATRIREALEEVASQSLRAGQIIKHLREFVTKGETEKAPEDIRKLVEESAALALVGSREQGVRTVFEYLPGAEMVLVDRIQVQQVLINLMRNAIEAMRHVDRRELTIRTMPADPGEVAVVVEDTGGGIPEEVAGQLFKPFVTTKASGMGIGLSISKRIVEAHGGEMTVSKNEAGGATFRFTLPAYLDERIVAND
Chain of EnvZ cytoplasmic portion (P0AEJ4 180-450): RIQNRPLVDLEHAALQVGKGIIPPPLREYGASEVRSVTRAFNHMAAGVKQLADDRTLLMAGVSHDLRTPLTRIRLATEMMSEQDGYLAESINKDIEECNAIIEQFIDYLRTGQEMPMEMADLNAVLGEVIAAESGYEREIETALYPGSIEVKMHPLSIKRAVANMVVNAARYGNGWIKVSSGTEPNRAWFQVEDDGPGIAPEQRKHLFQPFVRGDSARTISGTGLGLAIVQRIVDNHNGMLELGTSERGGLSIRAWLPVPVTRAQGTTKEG
Chain of FixJ (Rhizobium meliloti) (P10958 whole entry): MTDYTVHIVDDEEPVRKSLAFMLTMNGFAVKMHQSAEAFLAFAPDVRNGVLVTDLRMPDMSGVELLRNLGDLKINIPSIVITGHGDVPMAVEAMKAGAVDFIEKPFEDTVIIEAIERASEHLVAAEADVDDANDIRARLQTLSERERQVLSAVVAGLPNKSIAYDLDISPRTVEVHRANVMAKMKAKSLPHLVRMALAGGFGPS

With “FixL heme-binding and kinase domains (from UniProt P10955)” as the substance, how does the Kd [1] read?
Its Kd is 4000 nM.

Which “other: mol DcuR per mol PASC-Kin in complex peak” value (DcuR) does the source give for “DcuS (cytoplasmic part: PASC-Kin) PASC-Kin, 212-539 (from UniProt P0AEC8) PASC-Kin pre-incubated with ATP, mixed with DcuR” here?
The value was “stronger; reference approximately 0.11”.

With “EnvZ cytoplasmic portion (from UniProt P0AEJ4)” as the substance, how does the Kd (OmpR (Escherichia coli)) read?
Its Kd is 425 nM.
